Patent US20180271973A1

Target: CH505 transmitted/founder (T/F) Env gp120 (HIV-1)
Assay: surface plasmon resonance

## CH103 UCA (unmutated common ancestor of the CH103 CD4 binding site bnAb lineage) (antibody)
  Kd: 200 nM
